# In publication PMC12114846 (2025):
# Target: IL-15 (Homo sapiens, UniProt P40933)
# Sequence (P40933 49-162): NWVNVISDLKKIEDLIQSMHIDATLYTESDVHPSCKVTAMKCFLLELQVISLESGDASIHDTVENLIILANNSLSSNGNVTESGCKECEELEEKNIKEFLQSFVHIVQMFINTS
binder,measurement,value
"rILR-Fc (IL-15Rα-Sushi-Fc) Sushi (protein, Fc fusion) TRGITCPPPMSVEHADIWVKSYSLYSRERYICNSGFKRKAGTSSLTECVLNKATNVAHWTTPSLKCIRDPA",Kd,0.24 nM
